Measured values: patent US9586990B2, “Enzymes for transforming ergopeptines and method therefor” (Erber Aktiengesellschaft, priority 2012, dated 2017)

Key:
[1] = pH stability of the enzyme; type: biochemical; settings: 1 h at 25° C. at pH 2 to pH 12; then assay at pH 7.0, 25° C.
Procedure: In order to determine the pH stability, the enzyme was incubated for 1 h at 25° C. at varying pH values ranging from pH 2 to pH 12. After this, the enzyme solutions in concentrations of 0.1 μg/ml were incubated with 0.1 mg/ml BSA and 5 mg/kg ergotamine in Teorell-Stenhagen universal buffer (pH 7.0) at 25° C.

[2] = temperature stability of the enzyme; type: biochemical
Procedure: In order to determine the temperature stability, the enzyme was incubated for 1 h at varying temperatures ranging from 10° C. to 60° C. After this, the enzyme solutions were incubated at concentrations of 0.1 μg/ml in Teorell-Stenhagen universal buffer (pH 7.0) with 0.1 mg/ml BSA and 5 mg/kg ergotamine at 25° C.

[3] = activity (detoxification) assay of the purified his-tagged enzyme with ergotamine; type: biochemical; settings: FIG. 1; 50 mM sodium phosphate buffer pH 7.0, 25° C.; enzyme 0.079 μg/ml, ergotamine 5 mg/kg
Procedure: (§1) The gene with the sequence ID No. 2, which codes for an α/β-hydrolase comprising a catalytic triad of S94-D234-H270, was cloned into the expression vector pET28a(+) by applying standard methods, transformed and expressed in E. coli. Following the expression in E. coli BL21(DE3), the his-tagged enzyme was purified by affinity chromatography. The enzyme concentration was determined using a Pierce BSA Protein Assay Kit, and the enzyme was used in activity assays. The assays were carried out in 50 mM sodium phosphate buffer (pH 7.0) at 25° C.
In the context of the detoxification assays, enzyme concentrations of 0.079 μg/ml and ergotamine concentrations of 5 mg/kg were used.
The samples were analyzed using HPLC-FLD or HPLC-MS/MS, each by analytically determining the respective concentration of the sum of the respective epimers. Simultaneously with the determination of the ergopeptine concentration during the enzymatic reaction, the formation of the ergo hydroxy acid (metabolite 1) and of the ergoproline cyclodipeptide (metabolite 2) was observed. During the continued reaction course, the conversion of metabolite 1 to ergine was detected.

[4] = temperature range of the activity; type: biochemical; settings: 0.1 μg/ml enzyme, 5 mg/kg ergotamine, Teorell-Stenhagen universal buffer pH 9.0
[5] = degradation assay in the in-vitro rumen model; settings: 1 μg/ml enzyme, 5 mg/kg ergotamine, rumen juice diluted 1:1, 39° C., HPLC/ESI-MS/MS
[6] = assay for reacting the six ergopeptines and their isomeric forms; type: biochemical; settings: 1.58 μg/ml enzyme, concentrations equimolar to 10 mg/kg ergotamine; pH 7.0, 25° C.; FIG. 2
Procedure: as §1
A further assay for reacting the six ergopeptines, namely ergotamine, ergovaline, ergocomine, ergocristine, ergocryptine or ergosine, and their respective isomeric forms, namely ergotaminine, ergovalinine, ergocominine, ergocristinine, ergocryptinine and ergosinine, used 1.58 μg/ml of the enzyme with sequence ID No. 1 and 10 mg/kg ergotamine, or the equimolar (summation) concentrations of the remaining ergopeptines or their epimers.
The samples were analyzed using HPLC-FLD or HPLC-MS/MS, each by analytically determining the respective concentration of the sum of the respective epimers. […] During the continued reaction course, the conversion of metabolite 1 to ergine was detected.

B1: enzyme with the sequence ID No. 1: α/β-hydrolase with catalytic triad S94-D234-H270, coded by gene sequence ID No. 2, cleaving ergopeptines in the cyclol ring (protein, listed as Rhodococcus erythropolis)
chain: MPLVVLSDGTRIHVETSGNGVPALVPCVGSSVPFERTFGEELKTDIQYNFVEVRGTSRSDGEPSEVASLDRISDDLEEVRQLLGLDKVIALGQSRNGMMAAHYAQKYPNSVLHLVTIGTPASLSMIKNEEYWNAFADDERKRLRAENDAAMEREGLLDLDNLNTAEKIVRLFDLEGAVYFYDPTTLMNDWWDASLLSRTFEVVMASNMGWADFDLVQTLQNSDVPAFVTFGKYDFMVSPLPKPGNPVDGKAGLFEDIPGVRVEVFEKSGHFPYWEQEQEFARRYRDWVATLPESAVRAAEAMTPNGIRQ
activity outside the pH 6 to pH 9 range after preincubation [1]: strongly decreasing activity
temperature up to which the enzyme is stable ([2]; 1 h preincubation at 10° C. to 60° C., then 0.1 μg/ml enzyme, pH 7.0, 0.1 mg/ml BSA, 5 mg/kg ergotamine, 25° C.): ≤ 30 °C
activity after incubation at 40° C. ([2]; 1 h preincubation at 40° C., then assay at pH 7.0, 25° C.): still displaying some activity
time to almost complete degradation of ergotamine to ergine [3]: ≤ 4 h
temperature optimum of activity, based on the starting speed [4]: 35 °C
conversion of ergotamine in the rumen model [5]: completely converted into ergine and lysergic acid
reaction courses of all other ergopeptines and their isomeric forms relative to ergotamine [6]: comparable
